Experimental data: US8039438B2, “Synthetic peptides that cause F-actin bundling and block actin depolymerization” (The Regents of the University of California, priority 2003, dated 2011)

Assays:
[1] = tested on: dextran-labeled electroporated cells; experiment: Change in number of dextran-labeled cells after electroporation with peptide; assay type: cell-based
[2] = molecular target: T1, purified rabbit muscle actin (Oryctolagus cuniculus, UniProt P68135); experiment: Negative stain electron microscopy of actin polymerized in presence of peptide; assay type: biochemical; conditions: co-polymerization, molar ratio peptide:actin=2, negative stain electron microscopy
T1 construct: purified rabbit muscle actin in vitro were visualized by negative stain electron microscopy; from tissue; host or cells: rabbit muscle
From the text: The actin bundles caused by co-polymerization of SS12 peptide with purified rabbit muscle actin in vitro were visualized by negative stain electron microscopy (FIG. 5). The bundles still show overall filamenteous structure about 3 times the width of actin filaments polymerized in vitro in the absence of SS12 peptide (FIG. 5A, B). The surface of the bundles is not smooth, but irregular, resembling attempts to branch or attachments of short actin bundles to the sides of the long ones (FIG. 5C). The peptide-bundled actin filaments are much shorter than the control filaments as visualized with rhodamine-phalloidin by fluorescence microscopy (data not shown).
Purified rabbit actin was polymerized in the presence or absence of the SS12 peptide and by absorption applied to a carbon coated copper grid. Negative contrastation was carried out with Pb-citrate and the dried grid was viewed in an Electron microscope at high magnifications (12,000× and 65,000×). […] Higher magnification identified a “modulated” decoration of the otherwise smooth filaments.

rabbit muscle actin = molecular target: T2, rabbit muscle actin (Oryctolagus cuniculus, UniProt P68135); experiment: In vitro bundling of actin by peptides (co-polymerization, differential centrifugation, SDS gel); assay type: biochemical
T2 construct: Purified rabbit muscle actin (Cytoskeleton Inc., Denver, Mo.); purchased Cytoskeleton Inc; host or cells: rabbit muscle
Description: The peptides in Table 2 were added to polymerised actin in vitro at different molar ratios. Centrifugation was used to separate fractions containing F-actin, G-actin and bundled actin, which were then run out on […]. Purified rabbit muscle actin (Cytoskeleton Inc., Denver, Mo.) was depolymerized in Low Salt Buffer [LSB; 5 mM Tris-HCl, pH 8.0, 0.2 mM CaCl2, 0.2 mM ATP, 0.5 mM DTT, mM sucrose) for 1 h on ice and denucleated by centrifugation for 1 h at 100,000×g, 4° C. 13 μM monomeric actin was polymerized in vitro by addition of 1/50 vol. […] The samples were centrifuged for 15 min at 10,000×g at room temperature to pellet “bundled filaments”. The resulting supernatant was centrifuged for 1 h at 100,000×g at room temperature to separate F-actin filaments […]. The fractions were boiled in SDS-sample buffer and analyzed on a 10% SDS-Polyacrylamide gel stained with Coomassie.

MDA 231 cells = experiment: Actin reorganization in MDA 231 cells electroporated with peptide, rhodamine-phalloidin stained; assay type: cell-based, human
Description: Referring now to FIG. 2, it can be shown that treatment with an active peptide results in actin organization in human mammary epithelial tumor cells. MDA 231 cells were electroporated with SS1 (panel A) or SS12 (panel B), fixed, and rhodamine-phalloidin stained. Control epithelial tumor cells were treated with SS1 (SEQ ID NO: 9) resulting in no effect on actin-filled lamellipodia (or ruffling) characteristic of crawling cells.
MDA 231 cells are a particularly aggressive tumor cell line crawling and moving from between tissues.

actin/pyrene-actin = actin/pyrene-actin (Oryctolagus cuniculus, UniProt P68135); experiment: Actin/pyrene-actin polymerization fluorescence (nucleating or capping activity); assay type: biochemical; conditions: time-dependent fluorescence increase; data not shown
From the text: Upon binding to ActA, the Arp2/3 complex has enhanced nucleating activity for actin polymerization (Skoble J, Portnoy D A, Welch M D, Three regions within ActA promote Arp2/3 complex-mediated actin nucleation and Listeria monocytogenes motility; J Cell Biol. […] Aug. 7; 150(3):527-38). We tested a possible involvement of the homologous sequence on nucleating or capping activity by following the time-dependent fluorescence increase upon actin/pyrene-actin polymerization in the presence of the synthetic peptide SS12.

MCF7 cells = experiment: Cytokinesis in MCF7 cells imaged after addition of peptide; assay type: cell-based; conditions: MCF7 cells electroporated with GFP-actin, peptide in DMSO, imaged up to 4 hours
Description: MCF7 cells were electroporated with GFP-actin and imaged (image not shown). After addition of peptide in DMSO, the MCF7 cells were continuously imaged for up to 4 hours. […] The actin filaments within the cells were observed by fluorescence and had the appearance of spikes. Thus it appears that treatment by the active peptide results in inhibition of cytokinesis and blocks cell division.

width of bundles relative to actin filaments polymerized in the absence of peptide [2]: about 3 times the width
bundling of actin during in vitro polymerization (rabbit muscle actin): most active
bundled actin upon inducing polymerization (rabbit muscle actin; 1:1 molar ratio peptide:actin, polymerization induced (PI +), FIGS. 6C, 6D): the bulk of the actin is bundled
bundled actin with peptide alone (rabbit muscle actin; 1:1 molar ratio peptide:actin, polymerization not induced, FIGS. 6C, 6D): half of the actin bundled
In vitro actin bundling activity (rabbit muscle actin; Tables 2 and 3, peptide co-polymerized with actin in vitro): active
free F-actin band (rabbit muscle actin; molar ratio 10:1, FIG. 6E): very small bands
free F-actin band (rabbit muscle actin; molar ratio 100:1, FIG. 6E lane 6): clearly no band of free F-actin
form of actin (rabbit muscle actin; molar ratio peptide to actin 50, FIG. 6F): all of the actin is in the bundled form
activity designation of the peptide in the sequence list (active / less active / inactive) (rabbit muscle actin; summary sequence table): SS12 active
Sequence: GIVRKWISRFEVWPYL (SS12 active synthetic peptide)
number of cells after 24 hours ([1]; compared to cells treated with the inactive peptide): decrease in the number of cells
time over which cell division was inhibited ([1]; observation period 36 hours, cells with 24 hr cell cycle): 36 h
cell movement (MDA 231 cells; MDA 231 cells after peptide treatment): ceased movement
effect on actin-filled lamellipodia (MDA 231 cells; MDA 231 cells electroporated with peptide): no longer have lamellipodia
nucleating or capping activity (actin/pyrene-actin): did not show any nucleating or capping activity
cytokinesis and nuclear division (MCF7 cells): cytokinesis but not nuclear division was blocked
